Assays:
[1] = target: somatostatin receptors in GH4 C1 cells; experiment: radioligand filtration binding on crude GH4 C1 membranes, antisense-treated against vehicle and sense-treated cells
[2] = target: somatostatin receptors in GH4 C1 cells; experiment: radioligand filtration binding on crude GH4 C1 membranes, cells treated with antisense oligo for 24 hours
[3] = target: somatostatin receptors in GH4 C1 cells; experiment: radioligand filtration binding on crude GH4 C1 membranes, sense oligo treated cells
[4] = target: somatostatin receptors in GH4 C1 cells; experiment: radioligand filtration binding on crude GH4 C1 membranes, vehicle-treated cells

decline in [125I]tyr-somatostatin binding after antisense treatment [1]: 60% | [125I]tyr-somatostatin binding, antisense oligo treated cells [2]: 166 fmol/mg | [125I]tyr-somatostatin binding (fmol/mg), sense oligo treated cells [3]: 350 fmol/mg | [125I]tyr-somatostatin binding (fmol/mg), vehicle-treated cells [4]: 408 fmol/mg
Substance: [125I]tyr-somatostatin, S-14 (from UniProt P61278) (peptide)
